Reference: patent publication US20260232826A1 (MABLINK BIOSCIENCE, published 2026)

Assays:
[1] = biological target: T1, recombinant human FRα protein (Sino Biological cat #11241-H08H) (human, UniProt P15328 25-233); test: ELISA: plate coated with recombinant human FRα (2 µg/mL), threefold dilution series of the antibody or ADC, goat anti-human IgG-HRP, normalized A450; x axis printed as [Recombinant FRa] (M) with log10 values
T1 construct: Bought recombinant protein; also called human folate receptor alpha; FOLR1
T1 sequence (P15328 25-233 limits assumed): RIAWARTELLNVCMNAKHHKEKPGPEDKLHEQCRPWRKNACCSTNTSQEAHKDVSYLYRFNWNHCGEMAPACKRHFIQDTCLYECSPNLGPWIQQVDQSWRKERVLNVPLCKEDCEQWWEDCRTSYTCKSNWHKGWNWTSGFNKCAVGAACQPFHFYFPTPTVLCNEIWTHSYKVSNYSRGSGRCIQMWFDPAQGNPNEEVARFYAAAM
Experimental: (§1) Sandwich ELISA assays are performed using 96-well high-binding ELISA plates (Corning Inc., New York, NY, USA, Cat #3590). Plates are coated using 100 µL/well of recombinant human FRα protein (Sino Biological cat #11241-H08H) in PBS (pH 7.4) at 2 μg/mL and incubated overnight at 4° C. After 2 washes with PBS-T (PBS+0.05% Tween-20), the plates are blocked with 200 μL/well of incubation buffer (PBS-T+0.1% BSA) for 1 h at room temperature. The plates are washed 4 times with PBS-T, and 100 μL of a threefold dilution series of tested compound (antibody or antibody-drug conjugate) is added. Then, the plates are incubated for 2 h at room temperature in the dark. After 5 washes with PBS-T, plates are incubated 1 h at room temperature with 100 μL/well of a goat anti-human IgG (H+L) HRP conjugated antibody (Jackson Immunoresearch cat #109-035-088), previously diluted 1:250000 in incubation buffer. After 5 washes with PBS-T, TMB substrate solution (Thermo-Fisher cat #N301) is added. […] Sigmoidal fittings were performed using GraphPad Prism 9 software.
Sandwich ELISA assays were performed using 96-well high-binding ELISA plates (Corning Inc., New York, NY, USA, Cat #3590). Plates were coated using 100 μL/well of recombinant human FRα protein (Sino Biological cat #11241-H08H); recombinant cynomolgus FRα protein (Sino Biological cat #90950-C08H); recombinant rat FRα protein (Sino Biological cat #81073-R08H) or recombinant mouse FRα protein (Sino Biological cat #50573-M08H) in PBS (pH 7.4) at 2 μg/mL and incubated overnight at 4° C. After 2 washes with PBS-T (PBS+0.05% Tween-20), the plates were blocked with 200 μL/well of incubation buffer (PBS-T+0.1% BSA) for 1 h at room temperature. The plates were washed 4 times with PBS-T, and 100 μL of a threefold dilution series of tested compound (antibody or antibody-drug conjugate) was added. Then, the plates were incubated for 2 h at room temperature in the dark. After 5 washes with PBS-T, plates were incubated 1 h at room temperature with 100 μL/well of a goat anti-human IgG (H+L) HRP conjugated antibody (Jackson Immunoresearch cat #109-035-088), previously diluted 1:250000 in incubation buffer.

[2] = biological target: T1, recombinant human FRα protein (Sino …); test: SPR, Biacore T200, 25 °C: antibody or ADC captured with Human Antibody Capture kit on CM5 chip, recombinant human FRα as analyte (0.5-8 nM), single cycle kinetics, 1:1 model, KD calculated as kd/ka
Experimental: (§2) Surface plasmon resonance (SPR) experiments are performed on a Biacore T200 apparatus, at 25° C. Tested antibody or ADC are captured at low density (300-500 RU) on a CM5 series S sensorchip, beforehand functionalized with a Human Antibody Capture kit (Cytiva cat #BR100839). A functionalized surface/flow cell treated similarly but omitting ligand is used as reference. […] The dissociation phase is measured by injection of running buffer for 900 sec. Between duplicates, surfaces/flow cells are regenerated with 3M MgCl₂ to remove both analyte and ligand, and fresh ligand capture are done using identical conditions. The data analysis is performed using the Biacore Evaluation software after subtraction of reference surface and analyte zero-concentration signals. Data are processed and fit to a 1:1 binding model to determine the binding kinetic rate constants, kₐ (on-rate) and kd (off-rate), and the KD (equilibrium dissociation constant, also referred to as “affinity”). Mean values and standard deviations over replicates are reported.
(§3) Surface plasmon resonance (SPR) experiments were performed on a Biacore T200 apparatus, at 25° C. Tested antibody or ADC were captured at low density (300-500 RU) on a CM5 series S sensorchip, beforehand functionalized with a Human Antibody Capture kit (Cytiva cat #BR100839). A functionalized surface/flow cell treated similarly but omitting ligand was used as reference. […] The dissociation phase was measured by injection of running buffer for 900 sec. Between duplicates, surfaces/flow cells were regenerated with 3M MgCl₂ to remove both analyte and ligand, and fresh ligand capture were done using identical conditions.

[3] = biological target: T1, recombinant human FRα protein (Sino …); test: SPR, Biacore T200, 25 °C: antibody or ADC captured with Human Antibody Capture kit on CM5 chip, recombinant human FRα as analyte (0.5-8 nM), single cycle kinetics, 1:1 model, mean over replicates
Experimental: as §2, §3

[4] = biological target: T1, recombinant human FRα protein (Sino …); test: SPR Biacore T200, antibody captured, recombinant human FRα as analyte, 1:1 model; the filing attributes it to an increased kd with a similar ka
Experimental: as §2
Surface plasmon resonance (SPR) experiments were performed on a Biacore T200 apparatus, at 25° C. Tested antibody or ADC were captured at low density (300-500 RU) on a CM5 series S sensorchip, beforehand functionalized with a Human Antibody Capture kit (Cytiva cat #BR100839). […] The dissociation phase was measured by injection of running buffer for 900 sec. […]

[5] = biological target: T2, recombinant rat FRα protein (Sino Biological cat #81073-R08H) (rat, UniProt G3V8M6 25-232); test: ELISA: plate coated with recombinant rat FRα (2 µg/mL), threefold dilution series of F-LALA-VA-EXA, goat anti-human IgG-HRP, A450; x axis printed as [Recombinant FRa] (M) with log10 values
T2 construct: Bought; also called rat recombinant FRα protein
T2 sequence (G3V8M6 entry or part of it R08H R08H limits assumed): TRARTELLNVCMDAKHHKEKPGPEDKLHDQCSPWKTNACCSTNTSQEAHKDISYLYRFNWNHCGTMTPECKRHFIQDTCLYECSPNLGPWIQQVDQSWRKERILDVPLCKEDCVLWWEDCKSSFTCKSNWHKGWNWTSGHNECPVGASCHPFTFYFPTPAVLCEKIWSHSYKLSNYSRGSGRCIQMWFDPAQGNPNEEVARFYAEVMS
Experimental: (§4) Sandwich ELISA assays were performed using 96-well high-binding ELISA plates (Corning Inc., New York, NY, USA, Cat #3590). Plates were coated using 100 μL/well of recombinant human FRα protein (Sino Biological cat #11241-H08H); recombinant cynomolgus FRα protein (Sino Biological cat #90950-C08H); recombinant rat FRα protein (Sino Biological cat #81073-R08H) or recombinant mouse FRα protein (Sino Biological cat #50573-M08H) in PBS (pH 7.4) at 2 μg/mL and incubated overnight at 4° C. After 2 washes with PBS-T (PBS+0.05% Tween-20), the plates were blocked with 200 μL/well of incubation buffer (PBS-T+0.1% BSA) for 1 h at room temperature. The plates were washed 4 times with PBS-T, and 100 μL of a threefold dilution series of tested compound (antibody or antibody-drug conjugate) was added. Then, the plates were incubated for 2 h at room temperature in the dark. After 5 washes with PBS-T, plates were incubated 1 h at room temperature with 100 μL/well of a goat anti-human IgG (H+L) HRP conjugated antibody (Jackson Immunoresearch cat #109-035-088), previously diluted 1:250000 in incubation buffer. After 5 washes with PBS-T, TMB substrate solution (Thermo-Fisher cat #N301) was added. […] Sigmoidal fittings were performed using GraphPad Prism 9 software.

[6] = biological target: T3, recombinant mouse FRα protein (Sino Biological cat #50573-M08H) (mouse, UniProt P35846 25-232); test: ELISA: plate coated with recombinant mouse FRα (2 µg/mL), threefold dilution series of F-LALA-VA-EXA, goat anti-human IgG-HRP, A450; x axis printed as [Recombinant FRa] (M) with log10 values
T3 construct: Bought; also called mouse recombinant FRα protein
T3 sequence (P35846 25-232 limits assumed, stated change not applied): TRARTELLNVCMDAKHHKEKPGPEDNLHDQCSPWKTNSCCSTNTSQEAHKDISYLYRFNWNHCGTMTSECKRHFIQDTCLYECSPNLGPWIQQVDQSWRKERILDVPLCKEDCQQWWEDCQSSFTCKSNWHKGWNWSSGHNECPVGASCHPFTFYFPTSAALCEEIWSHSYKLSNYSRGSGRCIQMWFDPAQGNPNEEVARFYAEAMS
Experimental: as §4

[7] = biological target: T4, recombinant cynomolgus FRα protein (Sino Biological cat #90950-C08H) (cynomolgus, UniProt A0A2K5U044 25-234); test: ELISA: plate coated with recombinant cynomolgus FRα (2 µg/mL), threefold dilution series of F-LALA-VA-EXA, goat anti-human IgG-HRP, A450; x axis printed as [Recombinant FRa] (M) with log10 values
T4 construct: Bought; also called cynomolgus recombinant FRα protein
T4 sequence (A0A2K5U044 entry or part of it C08H C08H): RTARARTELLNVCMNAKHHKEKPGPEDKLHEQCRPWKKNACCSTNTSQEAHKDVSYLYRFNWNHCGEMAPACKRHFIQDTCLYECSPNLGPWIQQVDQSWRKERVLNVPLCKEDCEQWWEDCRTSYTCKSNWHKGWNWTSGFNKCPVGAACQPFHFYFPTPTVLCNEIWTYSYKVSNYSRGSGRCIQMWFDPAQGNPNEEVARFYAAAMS
Experimental: as §4

[8] = biological target: T1, recombinant human FRα protein (Sino …); test: ELISA: plate coated with recombinant human FRα (2 µg/mL), threefold dilution series of F-LALA-VA-EXA, goat anti-human IgG-HRP, A450; x axis printed as [Recombinant FRa] (M) with log10 values
Experimental: as §1
Sandwich ELISA assays were performed using 96-well high-binding ELISA plates (Corning Inc., New York, NY, USA, Cat #3590). […]

Binder | EC50 (read off the curve) [1] [nM] | Kd [2] [nM] | koff [3] [s⁻¹] | kon [3] [M⁻¹ s⁻¹] | fold change of KD against mirvetuximab and mirvetuximab-based constructs [4] [fold] | binding result [5] | binding result [6] | EC50 (read off the curve) [7] [nM] | EC50 (read off the curve) [8] [nM]
farletuzumab (antibody, human IgG1, kappa, Human IgG1, made in CHO K1 cells; also called mAb2; native farletuzumab) heavy: not shown light: DIQLTQSPSSLSASVGDRVTITCSVSSSISSNNLHWYQQKPGKAPKPWIYGTSNLASGVPSRFSGSGSGTDYTFTISSLQPEDIATYYCQQWSSYPYMYTFGQGTKVEIKRTVAAPSVFIFPPSDEQLKSGTASVVCLLNNFYPREAKVQWKVDNALQSGNSQESVTEQDSKDSTYSLSSTLTLSKADYEKHKVYACEVTHQGLSSPVTKSFNRGEC | ~0.1 | 25.1 | 0.0361 | 1.9e+06 | ~10 |  |  |  | 
F-VA-EXA (antibody, human IgG1, kappa, interchain cysteine thiol conjugated to drug-linker LNK4-S, DAR 8; interchain cysteine thiols conjugated to drug-linker LNK4-S (Val-Ala-exatecan, polysarcosine), DAR 8) heavy chain: not shown light chain: DIQLTQSPSSLSASVGDRVTITCSVSSSISSNNLHWYQQKPGKAPKPWIYGTSNLASGVPSRFSGSGSGTDYTFTISSLQPEDIATYYCQQWSSYPYMYTFGQGTKVEIKRTVAAPSVFIFPPSDEQLKSGTASVVCLLNNFYPREAKVQWKVDNALQSGNSQESVTEQDSKDSTYSLSSTLTLSKADYEKHKVYACEVTHQGLSSPVTKSFNRGEC | ~0.1 | 30.9 | 0.0306 | 1e+06 |  |  |  |  | 
F-LALA-VA-EXA (antibody, human IgG1, kappa, L234A L235A, drug-linker LNK4-S on the interchain cysteine thiol, 1 per light chain (LC-1d); drug-linker LNK4-S (Val-Ala-exatecan with polysarcosine) on interchain cysteine thiols, 3 per heavy chain (HC-3d); DAR …, Antibody-drug conjugate) heavy: not shown light: DIQLTQSPSSLSASVGDRVTITCSVSSSISSNNLHWYQQKPGKAPKPWIYGTSNLASGVPSRFSGSGSGTDYTFTISSLQPEDIATYYCQQWSSYPYMYTFGQGTKVEIKRTVAAPSVFIFPPSDEQLKSGTASVVCLLNNFYPREAKVQWKVDNALQSGNSQESVTEQDSKDSTYSLSSTLTLSKADYEKHKVYACEVTHQGLSSPVTKSFNRGEC | ~0.1 | 27.8 | 0.0368 | 1.33e+06 |  | no binding | no binding | ~0.1 | ~0.1

Further lines, results first:

EC50 (read off the curve) [1] [nM] | Kd [2] [nM] | koff [3] [s⁻¹] | kon [3] [M⁻¹ s⁻¹] | fold change of KD against mirvetuximab and mirvetuximab-based constructs [4] [fold] | binding result [5] | binding result [6] | EC50 (read off the curve) [7] [nM] | EC50 (read off the curve) [8] [nM] | Binder
~0.1 | 25.5 | 0.0321 | 1.34e+06 | ~10 |  |  |  |  | farletuzumab-LALA (antibody, human IgG1, kappa, L234A L235A, also called mAb1; Fc-silent farletuzumab-LALA) heavy: not shown light: DIQLTQSPSSLSASVGDRVTITCSVSSSISSNNLHWYQQKPGKAPKPWIYGTSNLASGVPSRFSGSGSGTDYTFTISSLQPEDIATYYCQQWSSYPYMYTFGQGTKVEIKRTVAAPSVFIFPPSDEQLKSGTASVVCLLNNFYPREAKVQWKVDNALQSGNSQESVTEQDSKDSTYSLSSTLTLSKADYEKHKVYACEVTHQGLSSPVTKSFNRGEC
~0.2 | 0.211 | 0.000244 | 1.15e+06 |  |  |  |  |  | mirvetuximab (antibody, human IgG1, kappa, V domains shown, also called native mirvetuximab) VH: QVQLVQSGAEVVKPGASVKISCKASGYTFTGYFMNWVKQSPGQSLEWIGRIHPYDGDTFYNQKFQGKATLTVDKSSNTAHMELLSLTSEDFAVYYCTRYDGSRAMDYWGQGTTVTVSS VL: DIVLTQSPLSLAVSLGQPAIISCKASQSVSFAGTSLMHWYHQKPGQQPRLLIYRASNLEAGVPDRFSGSGSKTDFTLTISPVEAEDAATYYCQQSREYPYTFGGGTKLEIKR
~0.3 | 0.26 | 0.000327 | 1.26e+06 |  |  |  |  |  | M-SORAV (antibody, human IgG1, kappa, V domains shown, sulfo-SPDB-DM4 stochastically conjugated to lysines; average DAR 3.35 for the whole antibody, Antibody-drug conjugate; also called ADC derivative of mirvetuximab; mirvetuximab soravtansine comparator) VH: QVQLVQSGAEVVKPGASVKISCKASGYTFTGYFMNWVKQSPGQSLEWIGRIHPYDGDTFYNQKFQGKATLTVDKSSNTAHMELLSLTSEDFAVYYCTRYDGSRAMDYWGQGTTVTVSS VL: DIVLTQSPLSLAVSLGQPAIISCKASQSVSFAGTSLMHWYHQKPGQQPRLLIYRASNLEAGVPDRFSGSGSKTDFTLTISPVEAEDAATYYCQQSREYPYTFGGGTKLEIKR
